The test system of one assay is soybean plantlets. Briefly: High-throughput soybean screening for herbicide tolerance (plantlets). The format is in vivo, soybean (A3555). On the set-up: key: 0 for poor tolerance, high damage, low green coloration; 1 for some tolerance, average damage, moderate green coloration; 2 for good tolerance, low damage, high green coloration. The settings on record: S-3100 spray five weeks post-transformation, scored day four. From the text: A high-throughput plant transformation and screening method was used to evaluate large numbers of constructs in transgenic plants for herbicide tolerance in early transformation plantlet tissue. This allowed for faster and higher volume screening of construct configurations and PPO enzymes.
This permitted the side-by-side comparison of seven different HemG PPO enzymes with thirty-seven different targeting peptides using the same promoter and 3′UTR elements for gene expression. These plant transformation constructs were used to transform soybean excised embryos (germplasm A3555) using A. tumefaciens and standard methods known in the art. Four hundred explants were inoculated for each construct resulting in twelve containers per construct. A sterile PPO herbicide solution was used for herbicide tolerance testing. The herbicide solution consisted of 0.3 g of S-3100 in crop oil concentrate (5.0 mL) and 495 mL of deionized water. This was filtered through a 0.45 micron Nalgene® Rapid-Flow™ Tissue Culture Filter Unit and Surfactant-Free Cellulose Acetate membrane filter unit (VWR, Radnor, PA, USA). The resulting sterile solution was shaken before application.
At five weeks post-transformation, four of the twelve plant containers per construct were sprayed with two passes of the sterile PPO herbicide solution. The treated plantlets were then enclosed in the container and received at least 15 hours of light exposure post spray each day for four days. At the end of day four post application of S-3100, the treated plantlets were photographed and scored on a visual scale of green coloration (green coloration was representative of healthy photosynthetic plant tissue as compared to photo-bleached tissue) versus damage. The scoring values were 0 for poor tolerance, high damage, low green coloration; 1 for some tolerance, average damage, moderate green coloration; and 2 for good tolerance, low damage, high green coloration. The scoring for each construct is presented in Table 9, where n.d. indicates the analysis was not conducted.

The test system of a further assay is R0 soybean plants. Briefly: R0 transgenic soybean herbicide tolerance at eleven weeks. Particulars: R0 plants sprayed with S-3100 at eleven weeks, rated seven days after treatment. The format is in vivo. The procedure: The plantlets in the non-sprayed containers corresponding to constructs having a score of 2 were transplanted at approximately 7 weeks post transformation and grown as R0 plants using standard methods known in the art. Plantlets corresponding to non-tolerant scores of 0 and 1 were also grown to serve as negative controls. The R0 plants were grown in a greenhouse under long-day nursery conditions (18 hr light at 80° F. then 6 hr dark at 74° F.) for approximately four weeks. At eleven weeks, the R0 plants were sprayed with two passes of the same herbicide solution (0.3 g of 5-3100) described above. Herbicide injury ratings were collected seven days after treatment.
The results of the herbicide tolerance application at eleven weeks to the R0 plants confirmed the low percent injury rating scores observed in the high-throughput screen at five weeks. Any injury rating of 30% or above was equivalent to non-transgenic soybean injury ratings. A few of the constructs stood out as providing very good tolerance to the herbicide application. […] Data are provided in Table 10, where n.d. indicates the analysis was not conducted.

A further assay relates to transgenic maize plants. Briefly: R0 transgenic maize 40 g/ha S-3100 spray test. The format is in vivo. The settings on record: for Average Injury / Highly Tolerant (number of plants with less than 10% injury): 40 grams/ha S-3100 at V5, 7 days after treatment, R0 plants; for injury rates when expressed in transgenic plants (crop tolerance to a PPO herbicide): R0 transgenic maize data. From the text: H_N60 (SEQ ID NO:3). […] These five constructs had the same promoter plus leader plus intron combination, with two different targeting peptide (TP) sequences, and the same 3′UTR sequence. Leaf samples were taken from the R0 plants and analyzed by PCR to determine the transgene copy number. Single copy plants for up to 12 unique events per construct were transplanted to pots, selfed and outcrossed to generate R1 and F1 seed, respectively, for future testing. Multi-copy plants and extra single copy plants were sprayed with 40 grams/ha 5-3100 at approximately the V5 growth stage and injury ratings were taken 7 days after treatment. The average percent (%) injury for all plants expressing each PPO enzyme and the number of plants that were deemed highly tolerant (less than 10% injury) was noted, where each plant is a unique single or multi-copy transformant.

B1: H_N100: microbial HemG protoporphyrinogen oxidase, SEQ ID NO:9 (SEQ ID NO:17 lacking start methionine; variant 20) (protein, listed as Enterobacter cloacae)
chain: MKTLILFSTRDGQTREIAAFLASELKEQGIYADVINLNRTEEIAWQEYDRVVIGASIRYGHFHPAVDRFVKKHTETLNSLPGAFFSVNLVARKAEKRTPQTNSYTRKFLLNSPWKPAACAVFAGALRYPRYRWYDRFMIRLIMKMTGGETDTRKEVVYTDWSQVASFAREIVQLTRSSRL
Take B1: the coloration score in the assay on soybean plantlets (TP9) came to 0; in the assay on soybean plantlets (TP10), 1; with soybean plantlets (TP11), 0; in the assay with soybean plantlets (TP12), 2; with soybean plantlets (TP13), 0; in the assay on soybean plantlets (TP14), 1. Moreover, the coloration score with soybean plantlets (TP15) is 2; with soybean plantlets (TP16), 1; in the assay with soybean plantlets (TP17), 1; with soybean plantlets (TP18), 1; in the assay on soybean plantlets (TP19) it was 1; in the assay with soybean plantlets (TP20) it was 2. The coloration score in the assay with soybean plantlets (TP21) is reported as 0; in the assay on soybean plantlets (TP22), 2; with soybean plantlets (TP23) it was 2; in the assay on soybean plantlets (TP24), 0; with soybean plantlets (TP25) it was 1; with soybean plantlets (TP27), 1. The coloration score in the assay with soybean plantlets (TP28) came out at 1; in the assay with soybean plantlets (TP29), 1; with soybean plantlets (TP30), 1; in the assay on soybean plantlets (TP31), 1; in the assay with soybean plantlets (TP32), 2; in the assay with soybean plantlets (TP33), 1. The figures for the coloration score with soybean plantlets (TP34), in the assay on soybean plantlets (TP35) and in the assay on soybean plantlets (TP36) were 0, 1 and 1, respectively. The percent injury score in the assay with R0 soybean plants (TP10) amounted to 35%; in the assay with R0 soybean plants (TP12) it was 50%; in the assay with R0 soybean plants (TP15), 30%; with R0 soybean plants (TP20), 35%; in the assay on R0 soybean plants (TP22), 30%; in the assay on R0 soybean plants (TP23) it was 35%. Also, the percent injury score with R0 soybean plants (TP28) turned out to be 35%; with R0 soybean plants (TP29) it was 40%; in the assay with R0 soybean plants (TP32), 40%; with R0 soybean plants (TP35), 35%.

B2: H_N110: microbial HemG protoporphyrinogen oxidase, SEQ ID NO:10 (protein, listed as Enterobacter mori)
chain: MKILILFSTRDGQTREIAASLASELKEQAFDVDVVNLHRAENIAWEEYDGVVIGASIRYGHFHSTLNSFVKKHQQALKKLPGAFYSVNLVARKPEKRTPQTNSYTRKFLLDSPWQPDLSAVFAGALRYPRYNWYDRIMIRLIMKITGGETDTRKEVVYTDWQQVTHFAHEIVQLVRK
With B2, in the assay with transgenic maize plants, the “Average Injury” value amounted to 43.0%, the “Highly Tolerant (number of plants with less than 10% injury)” value is given as “did not produce any highly tolerant plants” and the “injury rates when expressed in transgenic plants (crop tolerance to a PPO herbicide)” value (“injury rates when expressed” for short) is “reduced injury rates”.

B3: H_N60: microbial HemG protoporphyrinogen oxidase, SEQ ID NO:3 (protein, listed as Pantoea stewardii)
chain: MKALILYSTRDGQTRKIASSIADVIRQQQQCDVLNIKDASLPDWAQYDRVLIGASIRYGHFQPVVDKFVKQHLHELQQRTSGFFSVNLTARKPEKRSPETNAYTQKFLAHSPWQPDCCAVFAGALYYPRYRWFDRVMIQLIMRMTGGETDSTKEVEYTDWQQVSTFANDFAQLPGKS
For the molecule B3, in the assay with transgenic maize plants, the “Average Injury” value was 55.8%, the “Highly Tolerant (number of plants with less than 10% injury)” value is on record as 19 and the “injury rates when expressed” value is recorded as “reduced injury rates”.

B4: H_N40: microbial HemG protoporphyrinogen oxidase, SEQ ID NO:6 (SEQ ID NO:15 lacking start methionine) (protein, listed as Pectobacterium carotovorum)
chain: MKALIVFSSRDGQTRAIASYIANTLKGTLECDVVNVLNANDIDLSQYDRVAIGASIRYGRFHPAVNQFIRKHLTSLQQLPSAFFSVNLTARKPEKRTIQTNAYTRKFLLNSPWQPDLCCVFAGALRYPRYRWFDRVMIQLIMRITGGETDSTKEIEYTDWQQVARFAQDFAQLAAKNPA
Regarding B4, the coloration score is recorded as 0 with soybean plantlets (TP9); 1 with soybean plantlets (TP11); 1 in the assay on soybean plantlets (TP12); 1 in the assay with soybean plantlets (TP13); 2 with soybean plantlets (TP14); 2 in the assay on soybean plantlets (TP15). The coloration score in the assay on soybean plantlets (TP17) stood at 1; in the assay with soybean plantlets (TP18), 1; with soybean plantlets (TP19), 1; in the assay with soybean plantlets (TP21), 2; in the assay on soybean plantlets (TP23) it was 1; in the assay on soybean plantlets (TP24), 0. For the same molecule, the coloration score in the assay on soybean plantlets (TP25) is 2; in the assay on soybean plantlets (TP26), 1; in the assay with soybean plantlets (TP27) it was 1; in the assay on soybean plantlets (TP28), 1; in the assay on soybean plantlets (TP29), 1; with soybean plantlets (TP30), 1. The coloration score with soybean plantlets (TP31) came out at 1; with soybean plantlets (TP32), 1; in the assay with soybean plantlets (TP33), 0. Besides, the percent injury score in the assay with R0 soybean plants (TP1) turned out to be 5%; with R0 soybean plants (TP13), 15%; in the assay with R0 soybean plants (TP14) it was 35%; with R0 soybean plants (TP15), 30%; in the assay with R0 soybean plants (TP21), 35%; in the assay on R0 soybean plants (TP25), 15%. The “Average Injury” value in the assay with transgenic maize plants amounted to 47.0%. Further, in the assay on transgenic maize plants, the “Highly Tolerant (number of plants with less than 10% injury)” value stood at 53. For the same molecule, the “injury rates when expressed” value in the assay with transgenic maize plants is “reduced injury rates”.

(Values after patent US12123009B2, “Methods and compositions for PPO herbicide tolerance in plants” (Monsanto Technology LLC, priority 2015, dated 2024).)
